B1: LINE1-full (parent)
chain: UACGUAGGUGGUUUUCCCCUGAUAGUGCUAAGGGGGCCUGGAAGUUUGGACUGGGCAGAGCUCAACACAGCGUGGCAAAGUGGCUGUGGCUAGACUGCCUCUCUGGAUUCCUCGUCACUCAGCAGGGCAUCUCUGAGAGAAAUGCC

Variants of: B1
Test: self-cleavage, relative activity (ratio to wild type); higher = more cleavage; in vitro, sequencing; the parent is a self-cleaving ribozyme

Variant | self-cleavage
UACGUAGGUGGUUUUCCCCUGAUAGUGCUAAGGGGGCCUGGAAGUUUGGACUGGGCAGAGCUCAACACAGCGUGGCAAAGUGGCUGUGGCUAGACUGCCUCUCUGGGUUCCUCGUCACCCAGCAGGGCAUCUCUGAGAGAAAUGCC [A107G U119C] | 1.31
UACGUAGGUGGUUUUCCCCUGAUAGUGCUAAGGGGGCCUGGUAGUUUGGACUGGGCAGAGCCCAACACAGCGUGGCAAAGUGGCUGUGGCUAGACUGCCUCUCUGGAUUCCUCGUCACUCAGCAGGGCAUCUCUGAGAGAAAUGCC [A42U U62C] | 0.04
UACGUAGGUGGUUUUCCCCUGAUAGUGCUAGGGGGGCCUGGAAGUUUGGACUGGGCAGAGCUCAACACAGCGUGGCAAAGUGGCUGUGGCUAGACUGCCUCUCUGGAUUCCUCAUCACUCAGCAGGGCAUCUCUGAGAGAAAUGCC [A31G G114A] | 1.09
UACGUAGGUGGUUUUCCCCUGAUAGUGCCAAGGGGGCCUGGAAGUUUGGACUGGCCAGAGCUCAACACAGCGUGGCAAAGUGGCUGUGGCUAGACUGCCUCUCUGGAUUCCUCGUCACUCAGCAGGGCAUCUCUGAGAGAAAUGCC [U29C G55C] | 0
UACGUAGGUGGUUUUCCCCUGAUAGUGCUAAGGGGGCCUGGAAGUUUGGACUGGGCAGAGCUCAACUCAGCGUGGCAAAGUGGCUGUGGCUAGACUGCCUCUCUGGGUUCCUCGUCACUCAGCAGGGCAUCUCUGAGAGAAAUGCC [A67U A107G] | 0
UACGUAGGUGGUUUUCCCCUGAUAGUGCUAAGGGGGCCUGGAAGUUUGGACUGAGCAGAGCCCAACACAGCGUGGCAAAGUGGCUGUGGCUAGACUGCCUCUCUGGAUUCCUCGUCACUCAGCAGGGCAUCUCUGAGAGAAAUGCC [G54A U62C] | 0.07
UACGUAGGUGGUUUUCCCCUGAUAGUGCUAAGGGGGCCUGGAUGUUUGGACUGGGCAGAGCCCAACACAGCGUGGCAAAGUGGCUGUGGCUAGACUGCCUCUCUGGAUUCCUCGUCACUCAGCAGGGCAUCUCUGAGAGAAAUGCC [A43U U62C] | 0.06
UACGUAGGUGGUUUUCCCCUGAUAGUGCUAAGGGGGCCUGGAAGUUUGGACUGGGCAGAGUUCAACACAGCGUGGCAAAGUGGCUGUGGCUAGACUGCCUCUCUGGAUUCCUCGUCACUCAGCAGGGCACCUCUGAGAGAAAUGCC [C61U U130C] | 0.05
UACGUAGGUGGUUUUCCCCUGAUAGUGCUAAGGGGGCCUGGAGGUUUGGACUGGGCAGAGCUCAACACAGCGUGGCAAAGUGGCUGUGGCUAGACUGCCUCUCUGGACUCCUCGUCACUCAGCAGGGCAUCUCUGAGAGAAAUGCC [A43G U108C] | 1.56
UACGUAGGUGGUUUUCCCCUGAUAGUGCUAAGGGGGCCUGGAAGUUUGGACUGGGCAGAGCUCAACACAGCGUGGCAAUGUGGCUGUGGCUAGACUGCCCCUCUGGAUUCCUCGUCACUCAGCAGGGCAUCUCUGAGAGAAAUGCC [A79U U100C] | 2.92
UACGUAGGUGGUUUUCCCCUGAUAGUGCUAAGGGGGCCUGGAAGUUUGAACUGGGCAGAGCUCAACACAGCGUGGCAAAGUGGCUGUGGCUAGACUGCCUCUCUGGAUUCCUCGUCACUCAGCAGGGCGUCUCUGAGAGAAAUGCC [G49A A129G] | 1.69
UACUUAGGUGGUUUUCCCCUGAUAGUGCUAAGGGGGCCUGGAAGUUUGGACUGGGCAGAGCUCAACACAGCGUGGCAAAGUGGCUGUGGCUAGACAGCCUCUCUGGAUUCCUCGUCACUCAGCAGGGCAUCUCUGAGAGAAAUGCC [G4U U96A] | 0.09
UACGUAGGUGGUUUUCCCCUGAUAGUGCUAAGGGGGCCUGGAAGCUUGGACUGGGCAGAGCUCAACACAGCGUGGCAAAGUGGCUGUGGCUAGACUGCCUCUCUGGAUUCCUCGUCACUCAGCAGGGCAUCACUGAGAGAAAUGCC [U45C U132A] | 1.96
UACGUAGGUGGUUUUCCCCUGAUAGUGCUAAGGGGGCCUGGAAGUUUGGACUGGGCAGAGCUCAACACAGCGCAGCAAAGUGGCUGUGGCUAGACUGCCUCUCUGGAUUCCUCGUCACUCAGCAGGGCAUCUCUGAGAGAAAUGCC [U73C G74A] | 2.38
UACGUAGGUGGUUUUCCCCUGAUAGUGCUAAGGGGGCCUGGAAGUUUGGACUGGGCAGAGCUCAACACAGCGUGGCAAAGUGGCUGUGGCUAGACUGCCUCUCUGGAUUCCGCGUCACUCAGCAGGGCAUCUCUGCGAGAAAUGCC [U112G A136C] | 0.61
UACGUAGGUGGUUUUCCCCUGAUAGUGCUAAGGGGGCCUGGAAGUUUGGACUGGGCAGAGCUCAACACAGCGUGGCAAAGUGGCUGUGGCUAGACUGCCUCUCUGGUUUCCUCGUCACCCAGCAGGGCAUCUCUGAGAGAAAUGCC [A107U U119C] | 2.16
UACGUAGGUGGUUUUCCCCUGAUAGUGCUAGGGGGGCCUGGAAGUUUGGACUGGGCAGAGCUCAACACAGCGUGGCAGAGUGGCUGUGGCUAGACUGCCUCUCUGGAUUCCUCGUCACUCAGCAGGGCAUCUCUGAGAGAAAUGCC [A31G A78G] | 0.96
UACGUAGGUGGUUUUCCCCUGUUAGUGCUAAGGGGGCCUGGAAGUUUGGACUGGGCAGAGCUCAACACAGCGUGGCAAAGUGGCUGUGGCUAGACUGCCUCCCUGGAUUCCUCGUCACUCAGCAGGGCAUCUCUGAGAGAAAUGCC [A22U U102C] | 1.06
UACGUAGGUGGUUUUCCCCUGAUAGUGCUAAGGGGGCCUGGAAGUUUGGACUGGGCAGAGCUCAACACAGCGUGGCAAAGUGGCUGUGGCUAGACUGCCUCUCUAGAUCCCUCGUCACUCAGCAGGGCAUCUCUGAGAGAAAUGCC [G105A U109C] | 1.46
UCCGUAGGUGGUUUUCCCCUGAUAGCGCUAAGGGGGCCUGGAAGUUUGGACUGGGCAGAGCUCAACACAGCGUGGCAAAGUGGCUGUGGCUAGACUGCCUCUCUGGAUUCCUCGUCACUCAGCAGGGCAUCUCUGAGAGAAAUGCC [A2C U26C] | 1.05

Variant | self-cleavage
UACGUAGGUGGUUUCCCCCUGAUAGUGCUAAGGGGGCCUGGAAGUUUGGACUGGGCAGAGCUCAACACAGCGUGGCAAAGUGACUGUGGCUAGACUGCCUCUCUGGAUUCCUCGUCACUCAGCAGGGCAUCUCUGAGAGAAAUGCC [U15C G83A] | 0.72
UACGUAGGUGGUUUUCCCCUGAAAGUGCUAAGGGGGCCUGGAAGUUUGGACUGGGCAGAGCUCAACACAGCGUGGCAAAGUGGCUGUGGCUAGACUGCCUCUCUGGAUACCUCGUCACUCAGCAGGGCAUCUCUGAGAGAAAUGCC [U23A U109A] | 1.33
UACGUAGGUGGUUUUCCCCUGAUAGUGCUAAGAGGGCCUGGAAGUUUGGACUGGGCAGAGCUCAACACAGCGUGGCAAAGUGGCUGUGGCUAGACUGCCUCUCUGGAUUCCUCGUCACUCAGCAGGGCACCUCUGAGAGAAAUGCC [G33A U130C] | 1.04
UACGUAGGUGGUUUUCCCCUGAUAGUGCUAAGGGGGCCUGGAAGUUUGGACUGGGCAGAGUUCAACACAGCGUGGCAAAGUGGCUGUGGCUAGACUGCCUCUCUGGAUUCCUCGUCACCCAGCAGGGCAUCUCUGAGAGAAAUGCC [C61U U119C] | 0.05
UACGUAGGUGGUUUUCCCCUGAUAGCGCUAAGGGGGCCUGGAAGUUUGGACUGGGCAGAGUUCAACACAGCGUGGCAAAGUGGCUGUGGCUAGACUGCCUCUCUGGAUUCCUCGUCACUCAGCAGGGCAUCUCUGAGAGAAAUGCC [U26C C61U] | 0.04
UACGUAGGCGGUUUUCCCCUGAUAGUGCUAAGGGGGCCUGGAAGUUUGGACUGGGCAGAGCUCAACACAGCGUGGCAAAGUGGCUGUGGCUAGACUGCCUCUCUGGAUUCCUCGUCACUCAGCAGGGCAUCUCUGUGAGAAAUGCC [U9C A136U] | 1.3
UACGUAGGUGGUUUUCCCCUGAUAGUGCUAAGGGGGCCUGGAAGUUUGGACUGGGCAGAGCUCAACACAGCGUGGCAAAGUGGCUGUGGCUGGACUGCCUCUCUGGGUUCCUCGUCACUCAGCAGGGCAUCUCUGAGAGAAAUGCC [A92G A107G] | 0.17
UACGUAGGUGGUUUUCCCCUGAUAGUGCCAAGGGGGCCUGGAAGUUUGGACUGGGCAGAGCUCAACACAGCGCGGCAAAGUGGCUGUGGCUAGACUGCCUCUCUGGAUUCCUCGUCACUCAGCAGGGCAUCUCUGAGAGAAAUGCC [U29C U73C] | 1.3
UACGUAUGUGGUUUUCCCCUGAUAGUGCUAAGGGGGCCUGGAAGUUUGGACUGGGCAGAGCUCAACACAGCGUGGCAAAGUGGCUGUGGCUAGACUGCCUCUCUGGAUUCCUCGCCACUCAGCAGGGCAUCUCUGAGAGAAAUGCC [G7U U115C] | 0.79
UACGUAGGUGGUUUUCCCCCGAUAGUGCUAAGGGGGCCUGGAAGUUUGGACUGGGCAGAGCUCAACACAGCGUGGCAAAGUGGCUGUGGCUAGACUGCCUCUCUGGAUUCCUCGUCACUCAGCAGGGUAUCUCUGAGAGAAAUGCC [U20C C128U] | 1.24
UACGUAGGUGGUUUUCCCCUGAUAGUGCUAAGGGGGCCUGGAAGUUUGGUCUGGGCAGAGCUCAACACAGCGUGGCAAAGUGGCUAUGGCUAGACUGCCUCUCUGGAUUCCUCGUCACUCAGCAGGGCAUCUCUGAGAGAAAUGCC [A50U G86A] | 0.06
UACGUAGGUGGUAUUCCCCUGAUAGUGCUAAGGGGGCCUGGAAGUUUGGACUGGGCAGAGCUCAACUCAGCGUGGCAAAGUGGCUGUGGCUAGACUGCCUCUCUGGAUUCCUCGUCACUCAGCAGGGCAUCUCUGAGAGAAAUGCC [U13A A67U] | 0.07
UACGUAGGUGGUUUUCCCCUGAUUGUGCUAAGGGGGCCUGGAAGUUUGGACUGGGCAGAGCUCAACACAGCGUGGCAAAGUGGCUGCGGCUAGACUGCCUCUCUGGAUUCCUCGUCACUCAGCAGGGCAUCUCUGAGAGAAAUGCC [A24U U87C] | 0.3
CACGUAGGUGGUUUUCCCCUGAUAGUGCUAAGGGGGCCUGGAAGUUUGGACUGGGCAGAGCUCAACACAGCGUGGCAAAGUGGCUGUGGCUAGACUGCCUCUCUGGAUUCCUCGUCACUCAGCAGGGCAUCUCUGAGUGAAAUGCC [U1C A138U] | 0.57
UACGUAGGUGGUUUUCCCCUGAUAGUGCUAAGGGGGCCUGGAAGUUUGGACUGGGCAGAGCUCAACACAGCGUGGCAAAGUGGCUGUGGCUAGACUGCCCCUCUGGAUUCCUCGUCACUCAUCAGGGCAUCUCUGAGAGAAAUGCC [U100C G122U] | 1.76
UACGUAGGUGGUUUUCCCCCGAUAGUGCUAAGGGGGCCUGGAAGUUUGGACUGGGCAGAGCUCAACACAGCGUGGCAAAGUGGCUGUGGCUAGACUGCCUCUCUGGAUUCCUCGUCACUCAGCAGGGCAUCUCUAAGAGAAAUGCC [U20C G135A] | 1.48
UACGUAGGUGGUUUUCCCCUGAUAGUGCUAAGGGGGCCUGGAAGUUUGGACUGGGCAGAGCUCAACACAGCGUGGCAAAGUGGAUGUGGCUAGACUGCCUCUCUGGAUUCCUCGUCACUCAGCAGGGCAUCUCUGAGAGAGAUGCC [C84A A141G] | 0.09
UACGUAGGUGGUUUUCCCCUGAUAGUGCUAAGGGGGCCUGGAAGUUUGGACUGGGCAGAGCUCAACACAGCGUGGCAAAGUGGCUGUGGCUAGACUGCCUCUCUGGAUUCCUCGUCACACUGCAGGGCAUCUCUGAGAGAAAUGCC [U119A A121U] | 1.67
UACGUAGGUGGUUUUCCCCUGAUAGUGCUAAGGGGGCCUGGAAGUUUGGACUGGGCAGAGCUCAACACAGCGUGGCAAAGUGGCUGUGGCUGGACUGCCUCUCUGGAUUCCUCGUCACUCAGCAGGGCAUCUCUGAGAGAAAUACC [A92G G144A] | 0.09

Source: the RNAGym collection of RNA variant scans (doi:10.7554/elife.90254)
